From patent US12269859B2, “Synthetic immune receptors and methods of use thereof” (Angeles Therapeutics, Inc., priority 2016, dated 2025)

Test system: target antigen-expressing cell line
Assay: Jurkat NFAT-GFP assay, coculture with target cell lines expressing the respective target antigen (summary Table 10A)
Assay type: cell-based, human
Parameters: key: The signs +/−, +, 2+ etc. after the name of the cell lines indicate the relative degree of positivity on the Jurkat-NFAT-GFP assay as measured by the % GFP positive cells; +: relative degree of positivity on the Jurkat-NFAT-GFP assay as measured by the % GFP positive cells; 2+: relative degree of positivity on the Jurkat-NFAT-GFP assay as measured by the % GFP positive cells
Conditions: relative % GFP positive cells; for NFAT-GFP ASSAY Positive Cell lines: NALM6: SIR-expressing Jurkat-NFAT-GFP cells cocultured with NALM6
Method in brief: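 Jurkat cells carrying an NFAT-driven GFP reporter and lentivirally expressing a SIR were cocultured with antigen-bearing target cells (E:T ~1:2) for about 4–18 h. GFP induction read by flow cytometry as % GFP+ cells, scored positive and graded (+/−, +, 2+) against parental Jurkat-NFAT-GFP cells.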

B1: 041416-U01 (protein)
chain: MALPVTALLLPLALLLHAARPDIVLTQSPATLSLSPGDRATISCRASESVTILGSHLIYWYQQKPGQPPRLLIQLASNVQTGVPARFSGSGSRTDFTLTISSVEPEDFAVYYCLQSRTIPRTFGQGTKLEIKRLEGKPIPNPLLGLDSTGSGEDLKNVFPPEVAVFEPSKAEIAHTQKATLVCLATGFYPDHVELSWWVNGKEVHSGVCTDPQPLKEQPALNDSRYCLSSRLRVSATFWQNPRNHFRCQVQFYGLSENDEWTQDRAKPVTQIVSAEAWGRADCGITSASYHQGVLSATILYEILLGKATLYAVLVSALVLMAMVKRKDSRGRAKRSGSGATNFSLLKQAGDVEENPGPTSMDWIWRILFLVGAATGAHSFEQVQLVQSGPEVKKPGESVKISCKASGYTFRHYSMNWVKQAPGQGLKWMGRINTESGVPIYADDFKGRFSFTVDTSASTAYLEISSLTSEDTAVYFCSNDYLYSLDFWGQGTTLTVSSTREQKLISEEDGSGTPFPSLAPPIMLLVDGKQQMVVVCLVLDVAPPGLDSPIWFSAGNGSALDAFTYGPSPATDGTWTNLAHLSLPSEELASWEPLVCHTGPGAEGHSRSTQPMHLSGEASTARTCPQEPLRGTPGGALWLGVLRLLLFKLLLFDLLLTCSCLCDPAGPLPSPATTTRLRALGSHRLHPATETGGREATSSPRPQPRDRRWGDTPPGRKPGSPVRAKRSGSGVKQTLNFDLLKLAGDVESNPGPSRGHMTEYKPTVRLATRDDVPRAVRTLAAAFADYPATRHTVDPDRHIERVTELQELFLTRVGLDIGKVWVADDGAAVAVWTTPESVEAGAVFAEIGPRMAELSGSRLAAQQQMEGLLAPHRPKEPAWFLATVGVSPDHQGKGLGSAVVLPGVEAAERAGVPAFLETSAPRNLPFYERLGFTVTADVEVPEGPRTWCMTRKPGA
modifications: Polynucleotide encoding a Synthetic Immune Receptor (SIR)
NFAT-GFP ASSAY Positive Cell lines: L363 (SIR-expressing Jurkat-NFAT-GFP cells cocultured with L363): L363 (2+), U266 | NFAT-GFP ASSAY Positive Cell lines: U266 (SIR-expressing Jurkat-NFAT-GFP cells cocultured with U266): (2+)

B2: 011317-B06 (protein)
chain: MALPVTALLLPLALLLHAARPLEQKLISEEDLGSGDRPDPAVYQLRDSKSSDKSVCLFTDFDSQTNVSQSKDSDVYITDKCVLDMRSMDFKSNSAVAWSNKSDFACANAFNNSIIPEDTFFPSPESSCDVKLVEKSFETDTNLNFQNLSVIGFRILLLKVAGFNLLMTLRLWSSSSRAKRSGSGVKQTLNFDLLKLAGDVESNPGPTSMALPVTALLLPLALLLHAARPDIVMTQSPATLSLSPGERATLSCRSSKSLQNVNGNTYLYWFQQKPGQSPQLLIYRMSNLNSGVPDRFSGSGSGTEFTLTISSLEPEDFAVYYCMQHLEYPITFGAGTKLEIKGGGGSGGGGSGGGGSEVQLVESGGGLVKPGGSLKLSCAASGYTFTSYVMHWVRQAPGKGLEWIGYINPYNDGTKYNEKFQGRVTISSDKSISTAYMELSSLRSEDTAMYYCARGTYYYGTRVFDYWGQGTLVTVSSTRGKPIPNPLLGLDSTGSGEDLKNVFPPEVAVFEPSEAEISHTQKATLVCLATGFYPDHVELSWWVNGKEVHSGVCTDPQPLKEQPALNDSRYCLSSRLRVSATFWQNPRNHFRCQVQFYGLSENDEWTQDRAKPVTQIVSAEAWGRADCGFTSESYQQGVLSATILYEILLGKATLYAVLVSALVLMAMVKRKDSRGRAKRSGSGATNFSLLKQAGDVEENPGPSRGHMTEYKPTVRLATRDDVPRAVRTLAAAFADYPATRHTVDPDRHIERVTELQELFLTRVGLDIGKVWVADDGAAVAVWTTPESVEAGAVFAEIGPRMAELSGSRLAAQQQMEGLLAPHRPKEPAWFLATVGVSPDHQGKGLGSAVVLPGVEAAERAGVPAFLETSAPRNLPFYERLGFTVTADVEVPEGPRTWCMTRKPGA
NFAT-GFP ASSAY Positive Cell lines: NALM6: (2+)

B3: 010417-I04 (protein)
chain: MALPVTALLLPLALLLHAARPLEGKPIPNPLLGLDSTGSGEDLKNVFPPEVAVFEPSKAEIAHTQKATLVCLATGFYPDHVELSWWVNGKEVHSGVCTDPQPLKEQPALNDSRYCLSSRLRVSATFWQNPRNHFRCQVQFYGLSENDEWTQDRAKPVTQIVSAEAWGRADCGITSASYHQGVLSATILYEILLGKATLYAVLVSALVLMAMVKRKDSRGRAKRSGSGATNFSLLKQAGDVEENPGPTSMALPVTALLLPLALLLHAARPEIVLTQSPDFQSVTPKEKVTITCRASESVDTFGISFMNWFQQKPDQSPKLLIHAASNQGSGVPSRFSGSGSGTDFTLTINSLEAEDAATYYCQQSKEVPFTFGGGTKVEIKGGGGSGGGGSGGGGSEVQLVESGGGLVQPGGSLRLSCAASGFTFSSSWMNWVRQAPGKGLEWVGRIYPGDGDTNYNGKFKGRFTISRDDSKNSLYLQMNSLKTEDTAVYYCARSGFITTVLDFDYWGQGTLVTVSSTREQKLISEEDLGSGTPFPSLAPPIMLLVDGKQQMVVVCLVLDVAPPGLDSPIWFSAGNGSALDAFTYGPSPATDGTWTNLAHLSLPSEELASWEPLVCHTGPGAEGHSRSTQPMHLSGEASTARTCPQEPLRGTPGGALWLGVLRLLLFKLLLFDLLLTCSCLCDPAGPLPSPATTTRLRALGSHRLHPATETGGREATSSPRPQPRDRRWGDTPPGRKPGSPVRAKRSGSGVKQTLNFDLLKLAGDVESNPGPSRSRGHMTEYKPTVRLATRDDVPRAVRTLAAAFADYPATRHTVDPDRHIERVTELQELFLTRVGLDIGKVWVADDGAAVAVWTTPESVEAGAVFAEIGPRMAELSGSRLAAQQQMEGLLAPHRPKEPAWFLATVGVSPDHQGKGLGSAVVLPGVEAAERAGVPAFLETSAPRNLPFYERLGFTVTADVEVPEGPRTWCMTRKPGA
NFAT-GFP ASSAY Positive Cell lines: NALM6: (+/−) | NFAT-GFP ASSAY Positive Cell lines: RAJI (SIR-expressing Jurkat-NFAT-GFP cells cocultured with RAJI): RAJI (+), NALM6

B4: 022817-L08 (protein)
chain: MALPVTALLLPLALLLHAARPDIVMTQSPATLSLSPGERATLSCRSSKSLQNVNGNTYLYWFQQKPGQSPQLLIYRMSNLNSGVPDRFSGSGSGTEFTLTISSLEPEDFAVYYCMQHLEYPITFGAGTKLEIKLEEQKLISEEDLGSGEDLKNVFPPEVAVFEPSKAEIAHTQKATLVCLATGFYPDHVELSWWVNGKEVHSGVCTDPQPLKEQPALNDSRYCLSSRLRVSATFWQNPRNHFRCQVQFYGLSENDEWTQDRAKPVTQIVSAEAWGRADCGITSASYHQGVLSATILYEILLGKATLYAVLVSALVLMAMVKRKDSRGRAKRSGSGATNFSLLKQAGDVEENPGPTSMDWIWRILFLVGAATGAHSFEEVQLVESGGGLVKPGGSLKLSCAASGYTFTSYVMHWVRQAPGKGLEWIGYINPYNDGTKYNEKFQGRVTISSDKSISTAYMELSSLRSEDTAMYYCARGTYYYGTRVFDYWGQGTLVTVSSTREQKLISEEDLGSGIQNPDPAVYQLRDSKSSDKSVCLFTDFDSQTNVSQSKDSDVYITDKCVLDMRSMDFKSNSAVAWSNKSDFACANAFNNSIIPEDTFFPSSDVPCDVKLVEKSFETDTNLNFQNLSVIGFRILLLKVAGFNLLMTLRLWSSRAKRSGSGVKQTLNFDLLKLAGDVESNPGPSRGHMTEYKPTVRLATRDDVPRAVRTLAAAFADYPATRHTVDPDRHIERVTELQELFLTRVGLDIGKVWVADDGAAVAVWTTPESVEAGAVFAEIGPRMAELSGSRLAAQQQMEGLLAPHRPKEPAWFLATVGVSPDHQGKGLGSAVVLPGVEAAERAGVPAFLETSAPRNLPFYERLGFTVTADVEVPEGPRTWCMTRKPGA
NFAT-GFP ASSAY Positive Cell lines: NALM6: (2+)
